Legend:
[1] = substrate: O=Cc1cccc(Oc2ccccc2)c1; assay: purified protein; type: biochemical, Aedes aegypti; settings: saturating NAD+, 33 mM phosphate pH 8.2, 1 mM EDTA, 0.1 mM pyrazole, 37°C
[2] = substrate: NC(=O)c1ccc[n+]([C@@H]2O[C@H](COP(=O)(O)OP(=O)(O)OC[C@H]3O[C@@H](n4cnc5c(N)ncnc54)[C@H](O)[C@@H]3O)[C@@H](O)[C@H]2O)c1; assay: purified protein; type: biochemical, Aedes aegypti; settings: saturating PBald, 33 mM phosphate pH 8.2, 1 mM EDTA, 0.1 mM pyrazole, 37°C, varied: cofactor

Protein	Km [1]	Km [2]
ALDH9948 (Aedes aegypti) (protein, full length, N-terminal His6 fusion from pET100-D/TOPO, E. coli BL21 Star (DE3), HisTrap Ni purified, about 65 kDa on SDS-PAGE; cDNA from PMD-R strain) MANANPEIKYTQLFINNEFVDAVSGKVFPTVNPSTGKKIVDIAEGDKADVDLAVQAAKAAFQRSSKWRQMDASARGKLIYKLADLMERDMHQIASLESLDNGKPYMSAVYDVYGSMNCLRYYAGWTDKVCGETVPSDGPHLTYTRKEPFGVVGQIIPWNYPLLMLAWKWGPALAAGCTIVMKPAEQTPLTALYMCSLVKEAGFPPGVVNMVPGYGPTAGNAITMHPDIRKVAFTGSVEVGKIVMAGAASNLKKVSLELGGKSPLVICDDVDVNEAAQIAYTGVFENMGQCCIAATRTFVQEGIYDAFVQKATELAKGRKVGNPFSQGIQHGPQIDDIQFKKILGFIETGKKEGAKLETGGVQVGEEGYFIEPTVFSNVTDEMTIAKEEIFGPVQSIIKFKTLDEAIERANATSFGLAAGIVTKNLNNALTFSNAVEAGSVWVNTYLAVSNQAPFGGYKQSGVGREMGKEGIEEYLETKTVSIKLPSKV	0.1538 ± 0.0308 µM	0.1391 ± 0.0279 µM
ALDH14080 (Aedes aegypti) (protein, full length, N-terminal His6 fusion from pET100-D/TOPO, E. coli BL21 Star (DE3), HisTrap Ni purified, about 65 kDa on SDS-PAGE; cDNA from PMD-R strain) MANPNQEIKYTKLFINNQFVDSQSGKTFPTLNPATGQKIVDVAEGDKADVDIAVQAAKTAFARSSAWRQMDASARGKLLHKLADLMERDINVLANLESLDNGKAFGDSVFDMNCAIDTFRYYAGWADKIHGSTVPSDGPVMTYIRKEPVGVVGQIIPWNYPVLMLTWKWAPALATGCTLVLKPAEQTPLSALYMAALSKEAGFPDGVINVVNGYGPTVGAAIVNHAEIRKVAFTGSVETGRLITEGSSKSNLKRVSLELGGKSPLVVFDDFDVDEAVEIAHNAIFANHGQNCCAGSRTFVQEGVYDKFVAKAAEMAKARKVGDAFAEGTQQGPQVDEEQLNKILGFFESASKEGAKLQTGGKRHGNVGYFVEPTVYSDVTDEMRIAREEIFGPVQSILKFKTLDEVIERANRTEYGLAAGVLTNNLNNALVFSNAVEAGSVWVNCYDYVMPTTPFGGFKQSGHGRELGYDGIELYTETKTVTIKLPSKV	–	0.1938 ± 0.0345 µM

Reference: article PMC4105619, “Identification and Characterisation of Aedes aegypti Aldehyde Dehydrogenases Involved in Pyrethroid Metabolism” (PLoS ONE, 2014)
